Data as given in patent publication US6635751B1, “Isolated nucleic acids encoding activated and suppressive forms of ATF6” (HSP Research Institute, Inc., priority 1998, dated 2003).

What was measured:
GRP78 promoter = assay: Co-transfection of pcDNA3.1 effector plasmid (full-length ATF6 or CREB-RP) with GRP78 promoter luciferase reporter in HeLa cells; assay type: cell-based, human
Description: 100 ng of an effector plasmid carrying a full-length ATF6 cDNA or plasmid vector alone was cotransfected into HeLa cells with 1 μg of a reporter plasmid containing luciferase gene fused with intact or mutant GRP promoters. The mutant promoter constructs used correspond to those of FIG. 6. Closed bars and open bars indicated cells treated with or without 2 μg/ml tunicamycin (in the figure, referred to as “TM”) for 16 hours, respectively. Experiments were repeated four times.
An effector plasmid carrying a full-length CREB-RP gene was cotransfected into HeLa cells harboring a reporter plasmid in the same manner as in FIG. 14. Experiments were repeated four times. In the figure, TM indicates tunicamycin.
An entire cDNA was inserted into the HindIII-XhoI sites or BamHI-EcoRI sites immediately downstream of the CMV promoter of pcDNA3.1(+) vector (manufactured by Invitrogen) to construct an effector plasmid for expressing ATF6 or CREB-RP, respectively.
In order to examine whether or not ATF6 is involved in the transcriptional regulation of the GRP gene in mammalian cells, HeLa cells were co-transfected with an effector plasmid carrying a full-length ATF6 cDNA and a reporter plasmid resulting from ligation of the firefly luciferase gene to downstream of the intact GRP promoter or a mutant GRP promoter, and GRP promoter activity was evaluated from the luciferase activity.
Therefore, with these findings in mind, a test was carried out to determine whether or not CREB-RP overexpression affects the activity of the GRP promoter.

human GRP78 promoter = assay: Overexpression of pCGN-ATF6 deletion mutants with reporter pGL3-G78(-132) in HeLa cells, ERSE-mediated transcription; assay type: cell-based; conditions: for transcription of the luciferase gene from the GRP78 promoter having ERSE: absence of endoplasmic reticulum stress (without TM)
Description: HeLa cells in a 24-well plate were transiently transfected with a reporter plasmid pGL-G78(−132) capable of expressing firefly luciferase gene under the control of human GRP78 promoter, together with pCGN vector alone (Vec) or each of ATF6 expression plasmids. Transfected cells were treated with (closed bars) or without (open bars) 2 μg/ml tunicamycin (TM) for 16 hours prior to measuring luciferase activity. The relative activities are indicated as the mean±standard deviations (bars) from four independent experiments (triplicate determinations).
Using HeLa cells co-transfected with the reporter plasmid pGL3-G78(−132) [see Example 1 (FIG. 6, line 2)] resulting from ligation of the firefly luciferase gene to downstream of the human GRP78 promoter ([−132 to +7], numbered on the basis of the translation initiation point taken as +1) and the expression plasmid for the ATF6 C-terminal deletion mutant of Example 10, the effects of each of the overexpressed C-terminal deletion mutants of ATF6 on ERSE-mediated transcriptional activation were evaluated.
Next, in the same manner as in Example 13, the effect of the overexpression of each ATF6 transcription-activating domain deletion mutant on ERSE-mediated transcriptional activation was evaluated by co-transfection with the reporter plasmid pGL3-G78(−132).

[1] = presence of TM (2 μg/ml, 16 hours)

B1: CREB-RP: full-length CREB-RP (SEQ ID NO: 34) expressed from pcDNA3.1(+) effector plasmid (protein, listed as Homo sapiens)
chain: MAELMLLSEIADPTRFFTDNLLSPEDWDSTLYSGLDEVAEEQTQLFRCPEQDVPFDGSSLDVGMDVSPSEPPWELLPIFPDLQVKSEPSSPCSSSSLSSESSRLSTEPSSEALGVGEVLHVKTESLAPPLCLLGDDPTSSFETVQINVIPTSDDSSDVQTKIEPVSPCSSVNSEASLLSADSSSQAFIGEEVLEVKTESLSPSGCLLWDVPAPSLGAVQISMGPSLDGSSGKALPTRKPPLQPKPVVLTTVPMPSRAVPPSTTVLLQSLVQPPPVSPVVLIQGAIRVQPEGPAPSLPRPERKSIVPAPMPGNSCPPEVDAKLLKRQQRMIKNRESACQSRRKKKEYLQGLEARLQAVLADNQQLRRENAALRRRLEALLAENSELKLGSGNRKVVCIMVFLLFIAFNFGPVSISEPPSAPISPRMNKGEPQPRRHLLGFSEQEPVQGVEPLQGSSQGPKEPQPSPTDQPSFSNLTAFPGGAKELLLRDLDQLFLSSDCRHFNRTESLRLADELSGWVQRHQRGRRKIPQRAQERQKSQPRKKSPPVKAVPIQPPGPPERDSVGQLQLYRHPDRSQPAFLDAIDRREDTFYVVSFRRGHLLLPAISHNKTSRPKMSLVMPAMAPNETLSGRGAPGDYEEMMQIECEVMDTRVIHIKTSTVPPSLRKQPSPTPGNATGGPLPVSAASQAHQASHQPLYLNHP
Q: Which “effect on reporter expression from intact GRP78 promoter” value (from here on “effect on reporter expression”) (GRP78 promoter; absence of TM) does the source give for B1 here?
A: The value was “hardly affected”.

Q: And the “effect on expression from mutant GRP78 promoter lacking all three ERSE sequences” value (GRP78 promoter)?
A: The value was “did not affect”.

Q: And the “effect on reporter expression” value (GRP78 promoter; [1])?
A: The value was “markedly suppressed”.

B2: ATF6(402): HA-tagged ATF6 amino acids 1st to 402nd; retains the transmembrane domain (protein, UniProt P18850 1-402, looked up, fragment)
chain: MGEPAGVAGTMESPFSPGLFHRLDEDWDSALFAELGYFTDTDELQLEAANETYENNFDNLDFDLDLMPWESDIWDINNQICTVKDIKAEPQPLSPASSSYSVSSPRSVDSYSSTQHVPEELDLSSSSQMSPLSLYGENSNSLSSAEPLKEDKPVTGPRNKTENGLTPKKKIQVNSKPSIQPKPLLLPAAPKTQTNSSVPAKTIIIQTVPTLMPLAKQQPIISLQPAPTKGQTVLLSQPTVVQLQAPGVLPSAQPVLAVAGGVTQLPNHVVNVVPAPSANSPVNGKLSVTKPVLQSTMRNVGSDIAVLRRQQRMIKNRESACQSRKKKKEYMLGLEARLKAALSENEQLKKENGTLKRQLDEVVSENQRLKVPSPKRRVVCVMIVLAFIILNYGPMSMLEQDS
modifications: HA tag
notes: HA-tagged ATF6 amino acids 1st to 402nd; retains the transmembrane domain
Q: Which “transcription of the luciferase gene from the GRP78 promoter having ERSE” value (human GRP78 promoter) does the source give for B2 here?
A: Its value is “constitutively enhanced”.

B3: ATF6(151-366): ATF6 amino acids 151st to 366th, transcription-activating domain deletion mutant (protein, UniProt P18850 151-366, looked up, fragment)
chain: DKPVTGPRNKTENGLTPKKKIQVNSKPSIQPKPLLLPAAPKTQTNSSVPAKTIIIQTVPTLMPLAKQQPIISLQPAPTKGQTVLLSQPTVVQLQAPGVLPSAQPVLAVAGGVTQLPNHVVNVVPAPSANSPVNGKLSVTKPVLQSTMRNVGSDIAVLRRQQRMIKNRESACQSRKKKKEYMLGLEARLKAALSENEQLKKENGTLKRQLDEVVSEN
Q: How did the “action on endogenous p50ATF6 in the nucleus” value (human GRP78 promoter) turn out when B3 was run?
A: Its value is “act dominant-negatively”.

B4: ATF6(330): HA-tagged ATF6 amino acids 1st to 330th; lacks the leucine zipper region (protein, UniProt P18850 1-330, looked up, fragment)
chain: MGEPAGVAGTMESPFSPGLFHRLDEDWDSALFAELGYFTDTDELQLEAANETYENNFDNLDFDLDLMPWESDIWDINNQICTVKDIKAEPQPLSPASSSYSVSSPRSVDSYSSTQHVPEELDLSSSSQMSPLSLYGENSNSLSSAEPLKEDKPVTGPRNKTENGLTPKKKIQVNSKPSIQPKPLLLPAAPKTQTNSSVPAKTIIIQTVPTLMPLAKQQPIISLQPAPTKGQTVLLSQPTVVQLQAPGVLPSAQPVLAVAGGVTQLPNHVVNVVPAPSANSPVNGKLSVTKPVLQSTMRNVGSDIAVLRRQQRMIKNRESACQSRKKKKEY
modifications: HA tag
notes: HA-tagged ATF6 amino acids 1st to 330th; lacks the leucine zipper region
Q: B4 was tested. Which “activity compared with ATF6(373) or ATF(366)” value (human GRP78 promoter; nearly the same expression level) did it give?
A: The value was “markedly lower activity”.

B5: ATF6(151-373): ATF6 amino acids 151st to 373rd, transcription-activating domain deletion mutant (protein, UniProt P18850 151-373, looked up, fragment)
chain: DKPVTGPRNKTENGLTPKKKIQVNSKPSIQPKPLLLPAAPKTQTNSSVPAKTIIIQTVPTLMPLAKQQPIISLQPAPTKGQTVLLSQPTVVQLQAPGVLPSAQPVLAVAGGVTQLPNHVVNVVPAPSANSPVNGKLSVTKPVLQSTMRNVGSDIAVLRRQQRMIKNRESACQSRKKKKEYMLGLEARLKAALSENEQLKKENGTLKRQLDEVVSENQRLKVPS
Q: How did the “action on endogenous p50ATF6 in the nucleus” value (human GRP78 promoter) turn out when B5 was run?
A: Its value is “act dominant-negatively”.

B6: ATF6: full-length ATF6, 670 amino acids (SEQ ID NO: 32), bZIP transcription factor expressed from pcDNA3.1(+) effector plasmid (protein, listed as Homo sapiens)
chain: MGEPAGVAGTMESPFSPGLFHRLDEDWDSALFAELGYFTDTDELQLEAANETYENNFDNLDFDLDLMPWESDIWDINNQICTVKDIKAEPQPLSPASSSYSVSSPRSVDSYSSTQHVPEELDLSSSSQMSPLSLYGENSNSLSSPEPLKEDKPVTGSRNKTENGLTPKKKIQVNSKPSIQPKPLLLPAAPKTQTNSSVPAKTIIIQTVPTLMPLAKQQPIISLQPAPTKGQTVLLSQPTVVQLQAPGVLPSAQPVLAVAGGVTQLPNHVVNVVPAPSANSPVNGKLSVTKPVLQSTMRNVGSDIAVLRRQQRMIKNRESACQSRKKKKEYMLGLEARLKAALSENEQLKKENGTLKRQLDEVVSENQRLKVPSPKRRVVCVMIVLAFIILNYGPMSMLEQDSRRMNPSVSPANQRRHLLGFSAKEAQDTSDGIIQKNSYRYDHSVSNDKALMVLTEEPLLYIPPPPCQPLINTTESLRLNHELRGWVHRHEVERTKSRRMTNNQQKTRILQGALEQGSNSQLMAVQYTETTSSISRNSGSELQVYYASPRSYQDFFEAIRRRGDTFYVVSFRRDHLLLPATTHNKTTRPKMSIVLPAININENVINGQDYEVMMQIDCQVMDTRILHIKSSSVPPYLRDQQRNQTNTFFGSPPAATEATHVVSTIPESLQ
Q: Which “increase of luciferase expression from GRP78 promoter having intact ERSE sequences over control vector” value (GRP78 promoter; absence of TM, 100 ng effector plasmid) does the source give for B6 here?
A: Its value is 5 fold.

Q: What about the “effect on expression from mutant GRP78 promoter lacking all three ERSE sequences” value (GRP78 promoter) of the same molecule?
A: Its value is “not affected”.

Q: And the “effect on reporter expression” value (GRP78 promoter; [1])?
A: Its value is “further increased”.

B7: ATF(670): full-length ATF6 with HA epitope at N-terminus, expressed from pCGN-ATF6(670) (protein, UniProt P18850 1-670, looked up)
chain: MGEPAGVAGTMESPFSPGLFHRLDEDWDSALFAELGYFTDTDELQLEAANETYENNFDNLDFDLDLMPWESDIWDINNQICTVKDIKAEPQPLSPASSSYSVSSPRSVDSYSSTQHVPEELDLSSSSQMSPLSLYGENSNSLSSAEPLKEDKPVTGPRNKTENGLTPKKKIQVNSKPSIQPKPLLLPAAPKTQTNSSVPAKTIIIQTVPTLMPLAKQQPIISLQPAPTKGQTVLLSQPTVVQLQAPGVLPSAQPVLAVAGGVTQLPNHVVNVVPAPSANSPVNGKLSVTKPVLQSTMRNVGSDIAVLRRQQRMIKNRESACQSRKKKKEYMLGLEARLKAALSENEQLKKENGTLKRQLDEVVSENQRLKVPSPKRRVVCVMIVLAFIILNYGPMSMLEQDSRRMNPSVSPANQRRHLLGFSAKEAQDTSDGIIQKNSYRYDHSVSNDKALMVLTEEPLLYIPPPPCQPLINTTESLRLNHELRGWVHRHEVERTKSRRMTNNQQKTRILQGALEQGSNSQLMAVQYTETTSSISRNSGSELQVYYASPRSYQDFFEAIRRRGDTFYVVSFRRDHLLLPATTHNKTTRPKMSIVLPAININENVINGQDYEVMMQIDCQVMDTRILHIKSSSVPPYLRDQQRNQTNTFFGSPPAATEATHVVSTIPESLQ
modifications: full-length N-terminal HA tag
Q: For B7, which “transcription of the luciferase gene from the GRP78 promoter having ERSE” value (human GRP78 promoter) is on record?
A: The value was “constitutively activated”.
